Results on 6 molecules are retold here after US20230391883A1 (BEIGENE SWITZERLAND, published 2023).

The target of assay [1] is T1, TIGIT-huIgG1 (human, UniProt Q495A1 22-141).
T1 construct: also called Human Fc-tagged TIGIT; TIGIT-huIgG1 fusion protein
T1 sequence: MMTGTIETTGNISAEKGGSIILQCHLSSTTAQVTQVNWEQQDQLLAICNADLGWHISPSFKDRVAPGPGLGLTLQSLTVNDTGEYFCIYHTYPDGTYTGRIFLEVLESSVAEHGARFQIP
Description: SPR (BIAcore T-200); human Fc-tagged TIGIT captured by anti-human IgG, antibody as analyte. As to the method: (§1) Briefly, anti-human IgG antibody was immobilized on an activated CM5 biosensor chip (Cat. No.: BR100530, GE Life Sciences). Human Fc-tagged TIGIT was flowed over the chip surface and captured by anti-human IgG antibody. Then a serial dilution (0.12 nM to 10 nM) of purified murine antibodies were flowed over the chip surface and changes in surface plasmon resonance signals were analyzed to calculate the association rates (kₒₙ) and dissociation rates (koff) by using the one-to-one Langmuir binding model (BIA Evaluation Software, GE Life Sciences). The equilibrium dissociation constant (KD) was calculated as the ratio koff/kₒₙ.

Assay [2] has as its target T1, TIGIT-huIgG1. As to the kind of experiment: SPR (BIAcore T-200); human Fc-tagged TIGIT captured by anti-human IgG, antibody as analyte; column head prints nM, koff/kon gives M. On the procedure:
as §1

Assay [3] has as its target T2, human TIGIT (form in the assay not stated) (human, UniProt Q495A1 22-141, limits assumed).
T2 construct: whole entry named
T2 sequence: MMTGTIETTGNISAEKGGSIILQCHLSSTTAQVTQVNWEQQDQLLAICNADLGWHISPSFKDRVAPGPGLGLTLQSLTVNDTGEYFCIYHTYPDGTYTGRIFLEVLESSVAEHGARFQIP
As to the kind of experiment: SPR; antibody captured on anti-human Fc surface, TIGIT analyte not named; Test 1. An excerpt: (§2) For affinity determination, antibodies were captured by anti-human Fc surface, and used in the affinity-assay based on surface plasmon resonance (SPR) technology.

Assay [4] has as its target T3, full-length human TIGIT on cells (human, UniProt Q495A1 22-244).
T3 construct: Used for engineered cells (NK92mi/TIGIT, NK92MI/TIGIT-DNAM-1, Jurkat/TIGIT) and for TIGIT on human blood cells; also called native TIGIT; huTIGIT
T3 sequence: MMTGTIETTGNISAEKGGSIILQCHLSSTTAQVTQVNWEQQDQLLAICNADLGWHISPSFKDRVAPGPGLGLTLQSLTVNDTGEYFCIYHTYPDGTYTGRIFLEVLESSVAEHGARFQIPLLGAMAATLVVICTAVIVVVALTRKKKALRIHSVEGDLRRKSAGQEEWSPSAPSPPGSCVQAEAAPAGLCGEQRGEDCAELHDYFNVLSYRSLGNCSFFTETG
As to the kind of experiment: flow cytometry on living NK92mi/TIGIT cells, goat anti-human IgG detection; Test 1. As to the method:
(§3) To evaluate the binding activity of anti-TIGIT antibodies to native TIGIT on living cells, NK92mi cells were engineered to over-express human TIGIT. Living NK92mi/TIGIT cells were seeded in 96-well plate and were incubated with a series of dilutions of anti-TIGIT antibodies. Goat anti-Human IgG was used as secondary antibody to detect antibody binding to the cell surface. EC₅₀ values for dose-dependent binding to human native TIGIT were determined by fitting the dose-response data to the four-parameter logistic model with GraphPad Prism. As show in FIG. 4A-B and Table 6.

The target in assay [5] is T2, human TIGIT (form in the assay not …). As to the kind of experiment: SPR; antibody captured on anti-human Fc surface, TIGIT analyte not named; Test 2.
Source text: as §2

In assay [6] the target is T3, full-length human TIGIT on cells. Description: flow cytometry on living NK92mi/TIGIT cells, goat anti-human IgG detection; Test 2. On the procedure: as §3
Assay [7] concerns the target T2, human TIGIT (form in the assay not …). Description: SPR; antibody captured on anti-human Fc surface, TIGIT analyte not named; mean of Tests 1 and 2.
Source text: as §2

The target in assay [8] is T4, TIGIT-his (human, UniProt Q495A1 22-141).
T4 construct: also called human TIGIT; not shown: his tag
T4 sequence: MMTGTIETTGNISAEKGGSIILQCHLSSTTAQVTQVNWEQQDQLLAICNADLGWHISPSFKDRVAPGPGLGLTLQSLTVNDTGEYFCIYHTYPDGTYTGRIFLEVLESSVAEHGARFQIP
As to the kind of experiment: SPR; antibody immobilized on CM5 chip, TIGIT-his as analyte, HBS pH 6.0.

Assay [9] concerns the target T4, TIGIT-his. Description: SPR; antibody immobilized on CM5 chip, TIGIT-his as analyte, HBS pH 7.4.
Assay [10] has as its target T5, TIGIT-mIgG2a (human; mouse, UniProt Q495A1 22-141).
T5 construct: also called soluble TIGIT; TIGIT-mIgG2a fusion protein
T5 sequence: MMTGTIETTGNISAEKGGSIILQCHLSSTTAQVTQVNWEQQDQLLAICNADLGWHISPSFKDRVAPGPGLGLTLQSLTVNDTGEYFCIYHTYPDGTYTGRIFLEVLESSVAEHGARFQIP
As to the kind of experiment: flow cytometry; blockade of soluble TIGIT binding to PVR on HEK293/PVR cells. An excerpt: (§4) To determine whether anti-TIGIT antibodies could block TIGIT-PVR and TIGIT-PVR-L2 interactions, HEK293 cells were engineered to express high levels of PVR or PVR-L2. The resultant cell lines were named HEK293/PVR and HEK293/PVR-L2, respectively. […] The blockade of TIGIT-ligand interaction was quantitatively measured by adding serially diluted anti-TIGIT antibodies.

Assay [11] deals with T5, TIGIT-mIgG2a. As to the kind of experiment: flow cytometry; blockade of soluble TIGIT binding to PVR-L2 on HEK293/PVR-L2 cells.
Source text: as §4

For assay [12], the target named is T4, TIGIT-his. As to the kind of experiment: SPR; antibody immobilized on CM5 chip, TIGIT-his as analyte, HBS pH 6.0; column head prints nM, koff/kon gives M.
For assay [13], the target named is T4, TIGIT-his. Description: SPR; antibody immobilized on CM5 chip, TIGIT-his as analyte, HBS pH 7.4; column head prints nM, koff/kon gives M.
The target in assay [14] is T6, humanized TIGIT of humanized TIGIT knock-in mice, on CD3+ splenocytes.
T6 chain: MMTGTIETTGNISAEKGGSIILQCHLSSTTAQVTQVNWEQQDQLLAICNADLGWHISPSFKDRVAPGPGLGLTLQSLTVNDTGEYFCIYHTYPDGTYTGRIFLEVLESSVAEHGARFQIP
As to the kind of experiment: TIGIT receptor occupancy assay on CD3+ splenocytes from humanized TIGIT knock-in mice.

Assay [15] addresses T3, full-length human TIGIT on cells. As to the kind of experiment: TIGIT receptor occupancy assay on CD3+ human peripheral blood mononuclear cells; CD3+ human peripheral blood mononuclear cells.
The target in assay [16] is T2, human TIGIT (form in the assay not …). As to the kind of experiment: SPR; antibody captured on anti-human Fc surface, TIGIT analyte not named; Test 1; Test 1.
Source text: as §2

B1: mu1217 (antibody, V domains shown)
VH: EVKLVESGGGLVQPGGSLKLSCATSGFTFSDYYMYWIRQTPEKRLEWVAYITKGGGSTYYPDTVKGRFTISRDNAKNTLYLQVSRLKSEDTAIYYCARQTNYDFTMDYWGQGTSVTVSS
VL: DIVMTQSHKFMSTSVGDRVSIICKASQDVGTSVAWYQQKPGQSPNLLIYWASARHTGVPDRFTGSGSGTDFTLTISNVQSEDLADYFCQQYSSYPLTFGAGTKLELK
notes: Purified murine hybridoma antibody; also called murine anti-TIGIT mAb mu1217
As to B1, in assay [1], the koff worked out at 3.96e-05 s⁻¹ and the association rate constant (kon) amounted to 4.33e+06 M⁻¹ s⁻¹. The molecule further displayed a Kd in assay [2] of 0.00915 nM.

B2: ch1217 (antibody, V domains shown)
VH: EVKLVESGGGLVQPGGSLKLSCATSGFTFSDYYMYWIRQTPEKRLEWVAYITKGGGSTYYPDTVKGRFTISRDNAKNTLYLQVSRLKSEDTAIYYCARQTNYDFTMDYWGQGTSVTVSS
VL: DIVMTQSHKFMSTSVGDRVSIICKASQDVGTSVAWYQQKPGQSPNLLIYWASARHTGVPDRFTGSGSGTDFTLTISNVQSEDLADYFCQQYSSYPLTFGAGTKLELK
notes: Chimeric: mu1217 variable domains fused to human IgG1mf/kappa constant regions; not shown: human kappa light chain constant region
In the case of B2, in assay [3], binding was characterised by a dissociation constant (Kd) of 0.283 nM, the dissociation rate constant (koff) came out at 0.000443 s⁻¹ and the on-rate (kon) came to 1.56e+06 M⁻¹ s⁻¹. The molecule also registered an EC50 in assay [4] of 0.1 µg/mL.

B3: hu1217-1-1 (antibody, V domains shown)
VH: EVQLVESGGGLVQPGGSLRLSCATSGFTFSDYYMYWIRQAPGKGLEWVAYITKGGGSTYYPDSVKGRFTISRDNAKNTLYLQMNSLRAEDTAVYYCARQTNYDFTMDYWGQGTLVTVSS
VL: EIVMTQSPATLSVSPGERATLSCKASQDVGTSVAWYQQKPGQAPRLLIYWASARHTGVPARFSGSGSGTEFTLTISSLQSEDFAVYYCQQYSSYPLTFGGGTKVEIK
notes: Full-length human IgG1mf/kappa format; not shown: human kappa light chain constant region
Turning to B3, the dissociation constant (Kd) amounted to 0.309 nM in [3], 0.52 nM in assay [5] and 0.415 nM in assay [7]. The off-rate constant (koff) in assay [3] worked out at 0.000448 s⁻¹; in assay [5] it was 0.000694 s⁻¹. The kon came out at 1.45e+06 M⁻¹ s⁻¹ in assay [3] and 1.33e+06 M⁻¹ s⁻¹ in assay [5]. Further, the EC50 stood at 0.114 µg/mL in assay [4] and 0.084 µg/mL in assay [6].

B4: hu1217-2-2/IgG1wt (antibody, V domains shown)
VH: EVQLVESGGGLVQPGGSLRLSCAASGFTFSDYYMYWVRQAPGKGLEWVAYITKGGGSTYYPDSVKGRFTISRDNAKNTLYLQMNSLRAEDTAVYYCARQTNYDFTMDYWGQGTLVTVSS
VL: EIVMTQSPATLSVSPGERATLSCKASQDVGTSVAWYQQKPGQAPRLLIYWASARHTGIPARFSGSGSGTEFTLTISSLQSEDFAVYYCQQYSSYPLTFGGGTKVEIK
notes: Humanized version with a wild-type IgG1 Fc region and the same VH and VL as hu1217-2-2/IgG1mf
With B4, the koff in assay [8] turned out to be 7.6e-05 s⁻¹; in assay [9] it was 9.53e-05 s⁻¹. In addition, the kon came to 2.54e+06 M⁻¹ s⁻¹ in assay [8] and 434000 M⁻¹ s⁻¹ in [9]. Also, the IC50 in [10] was determined as 0.64 µg/mL; in assay [11], 0.25 µg/mL. Besides, the Kd came to 0.0299 nM in assay [12] and 0.219 nM in assay [13].

B5: hu1217-2-2 (as named in Examples 12 to 14, Fc format not stated) (antibody, V domains shown)
VH: EVQLVESGGGLVQPGGSLRLSCAASGFTFSDYYMYWVRQAPGKGLEWVAYITKGGGSTYYPDSVKGRFTISRDNAKNTLYLQMNSLRAEDTAVYYCARQTNYDFTMDYWGQGTLVTVSS
VL: EIVMTQSPATLSVSPGERATLSCKASQDVGTSVAWYQQKPGQAPRLLIYWASARHTGIPARFSGSGSGTEFTLTISSLQSEDFAVYYCQQYSSYPLTFGGGTKVEIK
notes: kept apart from m7 and m8 for that reason; also called Antibody hu1217-2-2
Take B5: the EC50 in assay [14] is 0.0488 µg/mL; in assay [15] it was 0.0632 µg/mL.

B6: hu1217-2-2/IgG1mf (antibody, V domains shown)
VH: EVQLVESGGGLVQPGGSLRLSCAASGFTFSDYYMYWVRQAPGKGLEWVAYITKGGGSTYYPDSVKGRFTISRDNAKNTLYLQMNSLRAEDTAVYYCARQTNYDFTMDYWGQGTLVTVSS
VL: EIVMTQSPATLSVSPGERATLSCKASQDVGTSVAWYQQKPGQAPRLLIYWASARHTGIPARFSGSGSGTEFTLTISSLQSEDFAVYYCQQYSSYPLTFGGGTKVEIK
notes: not shown: human kappa light chain constant region
As for B6, the IC50 in assay [10] was 0.55 µg/mL; in assay [11] it was 0.18 µg/mL. In addition, the Kd in assay [3] amounted to 0.127 nM; in [5], 0.404 nM; in assay [7] it was 0.266 nM. Moreover, the results for the koff in assay [3] and in assay [5] were 0.000229 s⁻¹ and 0.000608 s⁻¹, respectively. In addition, the values for the kon in [5] and in [16] were 1.5e+06 M⁻¹ s⁻¹ and 1.8e+06 M⁻¹ s⁻¹, respectively. In addition, in assay [6], it took 0.068 µg/mL to reach a half-maximal effect (EC50).
